From publication PMC3360035

Target: Human γD-crystallin V75D (human)
Sequence (P07320 2-174 V76D): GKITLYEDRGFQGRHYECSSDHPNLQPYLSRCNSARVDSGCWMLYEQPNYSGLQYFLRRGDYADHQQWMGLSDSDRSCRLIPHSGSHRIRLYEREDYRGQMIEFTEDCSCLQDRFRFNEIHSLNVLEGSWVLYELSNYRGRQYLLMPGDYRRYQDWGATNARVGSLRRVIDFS

- suppression of aggregation on dilution out of 5 M GdnHCl (from maximum A350), αB in 5-fold molar excess: 73%
B1: αB-crystallin, wild type (natural protein)
chain: MDIAIHHPWIRRPFFPFHSPSRLFDQFFGEHLLESDLFPTSTSLSPFYLRPPSFLRAPSWFDTGLSEMRLEKDRFSVNLDVKHFSPEELKVKVLGDVIEVHGKHEERQDEHGFISREFHRKYRIPADVDPLTITSSLSSDGVLTVNGPRKQVSGPERTIPITREEKPAVTAAPKK
